Experimental data: US20120231006A1 (Amgen, published 2012)
Changes are numbered by the printed parent chain.

B1: mAb 5A4.2 (antibody, human IgG2, lambda, V domains shown)
VH: QVQLVQSGAEVKKPGASVKVSCKASGYTFTDYYMNWVRQAPGQGLEWMGWINPNSGGTKYAQKFQGRVTMTRDTSIRTAYMELSRLRSDDTAVYYCSREYGGNSDWFDPWGQGTLVTVSS
VL: QSVLTQPPSVSGAPGQRVTISCTGSSSNIGAGYDVHWYQQLPGTAPKLLIYGNSNRPSGVPDRFSGSKSGTSASLAITGLQAEDEADYYCQSYDNRLSDSVVIGGGTKLTVQG
notes: fully human IgG2 lambda, Campaign 2
B2: mAb 5F2.1 (antibody, human IgG2, lambda, V domains shown)
VH: B1 VH with K59H, R77S, S97A, N103Y
VL: B1 VL with S26R, G43R, G52D, T71S, R96S, V102L, Q112L
notes: as for B1
B3: mAb 2B4.1 (antibody, human IgG2, lambda, V domains shown)
VH: QVQLVQSGAEVKKPGASVKVSCKASGYTFTDYYMHWVRQAPGQGLEWMGWINPNSGGTNYVQKFQDRVTMTRDTSITTAYMELTRLRSDDTAVYYCAREEGDYGMDVWGQGTTVTVSS
VL: QSVLTQPPSVSGAPGQRVTISCTGSNSNIGTGYDVHWYQKLPGTAPRLLIYSHFNRPSGVPDRFSGSTSGTSASLAITGLQAEDEADYYCQSYDSSLSGSVFGGGTKLTVLG
B4: mAb 2D2.1 (antibody, human IgG2, lambda, V domains shown)
VH: QVQLQQWGAGLLKPSETLSLTCAVYGGSFSGYYWSWIRQPPGKGLEWIGEIDHSGRINYNPALKSRLTISVDTSKNQFSLKLSSVTAADTAVYYCARAGSGGYEDWFDPWGQGTLVTVSS
VL: QSVLTQPPSVSGAPGQRVTISCTGSSSNIGAGYNVHWYQQFPRTDPKLLIYVYNIRPSGVPDRFSGSRSGTSASLAITGLQTEDEADYYCQSYDSSLSGVVFGGGTKLTVLG
notes: fully human IgG2 lambda, Campaign 1; also called mAb 2D.1
B5: mAb 2B7.1 (antibody, human IgG2, V domains shown)
VH: B4 VH with R56S, I57T
VL: B4 VL with A31T
notes: fully human, Campaign 1
B6: mAb 2C1.1 (antibody, human IgG2, lambda, V domains shown)
VH: B4 VH with R56S, I57T
VL: B4 VL
notes: fully human IgG2 lambda, Campaign 1; tested hybridoma-purified and recombinant; also called anti-hOrai1 mAb 2C1.1
B7: mAb 5F7.1 (antibody, human IgG2, lambda)
heavy: QVQLVQSGAEVKKPGASVKVPCKASGYTFTDYYINWVRQAPGQGLEWMGWINPNNGGTNYAQKFQGRVTMTRDTSISTAYMELRRLRSDDTAVYYCARERGGYEDWFDPWGQGTLVTVSSASTKGPSVFPLAPCSRSTSESTAALGCLVKDYFPEPVTVSWNSGALTSGVHTFPAVLQSSGLYSLSSVVTVPSSNFGTQTYTCNVDHKPSNTKVDKTVERKCCVECPPCPAPPVAGPSVFLFPPKPKDTLMISRTPEVTCVVVDVSHEDPEVQFNWYVDGVEVHNAKTKPREEQFNSTFRVVSVLTVVHQDWLNGKEYKCKVSNKGLPAPIEKTISKTKGQPREPQVYTLPPSREEMTKNQVSLTCLVKGFYPSDIAVEWESNGQPENNYKTTPPMLDSDGSFFLYSKLTVDKSRWQQGNVFSCSVMHEALHNHYTQKSLSLSPGK
light: QSVLTQPPSVSGAPGQRVTISCTGSSSNIGAGFDVHWYQQLPVTAPKLLIYGNRNRPSGVPARFSGSKSGTSASLAITGLQAEDEAVYYCQSYDSSLTVFGGGTKLTVLGQPKANPTVTLFPPSSEELQANKATLVCLISDFYPGAVTVAWKADGSPVKAGVETTKPSKQSNNKYAASSYLSLTPEQWKSHRSYSCQVTHEGSTVEKTVAPTECS
notes: as for B1

How the values were obtained:
[1] = target: T1, human Orai1 (human, UniProt Q96D31 1-301); experiment: cell-based or functional assay
T1 sequence (Q96D31 whole entry): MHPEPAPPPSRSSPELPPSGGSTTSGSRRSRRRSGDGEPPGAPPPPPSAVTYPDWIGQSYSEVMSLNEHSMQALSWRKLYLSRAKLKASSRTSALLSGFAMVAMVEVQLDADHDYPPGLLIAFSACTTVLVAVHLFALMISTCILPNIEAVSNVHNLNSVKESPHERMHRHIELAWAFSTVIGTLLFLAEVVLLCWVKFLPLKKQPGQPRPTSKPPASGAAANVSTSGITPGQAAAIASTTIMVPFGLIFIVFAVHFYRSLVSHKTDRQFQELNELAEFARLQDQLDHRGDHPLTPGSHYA

[2] = target: T1, human Orai1; experiment: cell-based or functional assay; remark: listed apart in the source
[3] = target: T2, mOrai1-hOrai1 ECL2 chimeric protein (human/mouse chimera, UniProt Q8BWG9 1-304 (mouse entry)); experiment: FACS, 293EBNA transfectants [D00028 FIG. 16B]
T2 construct: mouse Orai1 with human ECL2; also called Ch
T2 sequence (Q8BWG9 other isoform, or with tags, fused parts or gaps mutant): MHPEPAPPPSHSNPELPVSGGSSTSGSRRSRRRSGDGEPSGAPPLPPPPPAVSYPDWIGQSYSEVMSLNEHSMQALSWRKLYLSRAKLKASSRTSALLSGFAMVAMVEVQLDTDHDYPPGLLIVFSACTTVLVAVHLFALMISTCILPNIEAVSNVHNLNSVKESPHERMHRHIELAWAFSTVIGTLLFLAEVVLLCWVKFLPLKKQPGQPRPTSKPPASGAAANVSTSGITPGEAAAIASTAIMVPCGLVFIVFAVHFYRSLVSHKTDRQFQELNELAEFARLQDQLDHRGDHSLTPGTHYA
Excerpt: (§1) FIG. 16A-D illustrates the results of FACS analysis showing binding to the indicated mOrai1-hOrai1 ECL2 chimeric mutants expressed on the surface of HEK-293-EBNA cells. Transfected cells were stained first with recombinant monoclonal antibodies then counter-stained with a secondary phycoerythrin-labeled goat (“Gt”) anti-human (“Hu”) IgG F(ab′)₂ antibody fragment and visualized using FACS. In FIG. 16B and FIG. 16D, The values of Relative Fluorescence Intensity as Percent of Control (RFI-POC) are calculated from the relative fluorescence intensity geometric mean (Geo Mean). The geometric mean is an average calculated by multiplying a series of numbers and taking the nth root where n is the number of numbers in the series. It is a statistical average of a set of transformed numbers often used to represent a central tendency in a highly variable data set that minimizes the effects of extreme values.
(§2) Table 11A and Table 11B feature a schematic representation of the POC data from FIG. 16B and FIG. 16D, respectively, where the binding results are recorded as (+++) denoting binding POC from 40% to 100%, (++) for POC of 5% to less than 40%, (+) for POC from 1% to less than 5% and (−) as lack of binding with POC less than 1%.

[4] = target: T3, mOrai1-hOrai1 ECL2 (VIV) protein (human/mouse chimera, UniProt Q8BWG9 1-304 (mouse entry)); experiment: FACS, 293EBNA transfectants [D00028 FIG. 16B]
T3 construct: also called Ch
T3 sequence (Q8BWG9 other isoform, or with tags, fused parts or gaps): as the sequence (Q8BWG9 other isoform, or with tags, fused parts or gaps mutant) above, with G221V, A222I, A223V counted along it
Excerpt: as §1, §2

[5] = target: T4, mOrai1-hOrai1 ECL2 (HSD) protein (human/mouse chimera, UniProt Q8BWG9 1-304 (mouse entry)); experiment: FACS, 293EBNA transfectants [D00028 FIG. 16B]
T4 construct: also called Ch
T4 sequence (Q8BWG9 other isoform, or with tags, fused parts or gaps): as the sequence (Q8BWG9 other isoform, or with tags, fused parts or gaps mutant) above, with V226H, T228D counted along it
Excerpt: as §1, §2

[6] = target: T5, hOrai1-mOrai1 ECL2 (AANVST) protein (human/mouse chimera, UniProt Q96D31 1-301); experiment: FACS, 293EBNA; design: concentration or dose not given beside the values
T5 construct: also called Ch
T5 sequence (Q96D31 other isoform, or with tags, fused parts or gaps): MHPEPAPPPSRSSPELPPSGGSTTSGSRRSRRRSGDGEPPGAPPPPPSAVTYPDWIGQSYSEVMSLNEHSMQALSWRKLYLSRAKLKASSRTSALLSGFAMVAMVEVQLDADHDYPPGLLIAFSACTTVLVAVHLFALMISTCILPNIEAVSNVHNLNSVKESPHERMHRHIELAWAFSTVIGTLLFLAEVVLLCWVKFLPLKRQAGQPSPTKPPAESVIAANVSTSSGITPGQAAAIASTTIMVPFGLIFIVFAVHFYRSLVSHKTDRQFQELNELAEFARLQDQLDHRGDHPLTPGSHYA
Protocol: (§3) FACS binding analysis. Transfected 293EBNA cells transiently expressed hOrai1-mOrai1 ECL2 or mOrai1-hOrai1 ECL2 chimera. The transfected cells were harvested at 48 hours post-transfection. Cells transfected with pcDNA3.1 were used as negative controls. Cells were washed once with ice-cold 1×PBS, resuspended in ice-cold FACS buffer (1×D-PBS+2% goat serum), and 2×10⁵ cells in 100 μL were stained per antibody combination. All antibody incubation steps were performed on ice for 1 hour. […] Next, the unlabelled antibody was detected using goat F(ab′)₂ anti-mouse or anti-human IgG-phycoerythrin (IgG-PE), followed by a wash with 200 μL of ice-cold FACS buffer before flow cytometry analysis. Unstained cells and cells stained with detecting antibodies were used as negative controls. The values of relative level of fluorescence were calculated using FCS Express (De Novo Software) and mean values were calculated using log-transformed data (geometric mean). The results of the FACS analysis are shown in FIG. 15A-B, which supports the conclusion that the hOrai1 ECL2 domain is the region of hOrai1 where antibodies of the present invention bind.
(§4) Representative results of FACS analysis of binding to the mutant hOrai1-mOrai1 ECL2 chimera described above by exemplary anti-hOrai1 antibodies of the present invention are shown in FIG. 17A-D, Table 10A and Table 10B below. Table 10A (Campaign 1) and Table 10B (Campaign 2) show the gain in binding ability of exemplary monoclonal antibodies to hOrai 1-mOrai 1 ECL2 chimera mutants as determined by FACS.

[7] = target: T6, hOrai1-mOrai1 ECL2 (GAA) protein (human/mouse chimera, UniProt Q96D31 1-301); experiment: FACS, 293EBNA; design: concentration or dose not given beside the values
T6 construct: also called Ch
T6 sequence (Q96D31 other isoform, or with tags, fused parts or gaps): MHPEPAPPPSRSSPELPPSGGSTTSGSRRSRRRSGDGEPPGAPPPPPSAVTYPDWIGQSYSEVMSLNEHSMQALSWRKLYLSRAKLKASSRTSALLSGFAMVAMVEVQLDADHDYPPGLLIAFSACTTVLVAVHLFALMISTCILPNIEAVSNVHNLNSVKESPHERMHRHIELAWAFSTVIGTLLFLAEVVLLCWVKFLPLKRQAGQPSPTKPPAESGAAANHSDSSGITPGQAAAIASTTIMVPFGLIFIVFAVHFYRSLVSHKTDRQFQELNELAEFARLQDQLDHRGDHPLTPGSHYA
Protocol: as §3, §4

[8] = target: T7, hOrai1-mOrai1 ECL2 chimeric protein (human/mouse chimera, UniProt Q96D31 1-301); experiment: FACS, 293EBNA; design: concentration or dose not given beside the values
T7 construct: human Orai1 with mouse ECL2; also called Ch
T7 sequence (Q96D31 other isoform, or with tags, fused parts or gaps mutant): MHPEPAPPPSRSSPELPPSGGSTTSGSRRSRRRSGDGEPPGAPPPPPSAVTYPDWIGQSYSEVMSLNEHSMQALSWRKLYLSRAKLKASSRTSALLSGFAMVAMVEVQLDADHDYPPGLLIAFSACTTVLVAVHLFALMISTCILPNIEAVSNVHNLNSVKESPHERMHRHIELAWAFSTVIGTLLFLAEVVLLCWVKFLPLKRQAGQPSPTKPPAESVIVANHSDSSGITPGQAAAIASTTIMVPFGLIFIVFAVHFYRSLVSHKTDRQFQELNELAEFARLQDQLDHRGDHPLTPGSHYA
Protocol: as §3, §4

[9] = target: T8, hOrai1-mOrai1 ECL2 (VST) protein (human/mouse chimera, UniProt Q96D31 1-301); experiment: FACS, 293EBNA; design: concentration or dose not given beside the values
T8 construct: also called Ch
T8 sequence (Q96D31 other isoform, or with tags, fused parts or gaps): as the sequence (Q96D31 other isoform, or with tags, fused parts or gaps mutant) above, with H224V, D226T counted along it
Protocol: as §3, §4

[10] = target: T9, hOrai1-mOrai1 ECL2 (…) protein (human/mouse chimera, UniProt Q96D31 1-301); experiment: FACS, 293EBNA; design: concentration or dose not given beside the values
T9 construct: also called Ch
T9 sequence (Q96D31 other isoform, or with tags, fused parts or gaps): as the sequence (Q96D31 other isoform, or with tags, fused parts or gaps mutant) above, with A216P, E217A, V219G, I220A, V221A, H224V, D226T counted along it
Protocol: as §3, §4

[11] = target: T10, hOrai1-mOrai1 ECL2 (PASGAA) protein (human/mouse chimera, UniProt Q96D31 1-301); experiment: FACS, 293EBNA; design: concentration or dose not given beside the values
T10 construct: also called Ch
T10 sequence (Q96D31 other isoform, or with tags, fused parts or gaps): as the sequence (Q96D31 other isoform, or with tags, fused parts or gaps mutant) above, with A216P, E217A, V219G, I220A, V221A counted along it
Protocol: as §3, §4

[12] = target: T11, mOrai1-hOrai1 ECL2 (…) protein (human/mouse chimera, UniProt Q8BWG9 1-304 (mouse entry)); experiment: FACS, 293EBNA transfectants [D00028 FIG. 16B]
T11 construct: also called Ch
T11 sequence (Q8BWG9 other isoform, or with tags, fused parts or gaps): as the sequence (Q8BWG9 other isoform, or with tags, fused parts or gaps mutant) above, with P218A, A219E, G221V, A222I, A223V, V226H, T228D counted along it
Excerpt: as §1, §2

[13] = target: T12, mOrai1-hOrai1 ECL2 (AESVIV) protein (human/mouse chimera, UniProt Q8BWG9 1-304 (mouse entry)); experiment: FACS, 293EBNA transfectants [D00028 FIG. 16B]
T12 construct: also called Ch
T12 sequence (Q8BWG9 other isoform, or with tags, fused parts or gaps): as the sequence (Q8BWG9 other isoform, or with tags, fused parts or gaps mutant) above, with P218A, A219E, G221V, A222I, A223V counted along it
Excerpt: as §1, §2

[14] = target: cynomolgus Orai1 (cynomolgus monkey, UniProt Q96D31 1-301 (human entry)); experiment: cell-based or functional assay
Chain of cynomolgus Orai1 (Q96D31 other isoform, or with tags, fused parts or gaps): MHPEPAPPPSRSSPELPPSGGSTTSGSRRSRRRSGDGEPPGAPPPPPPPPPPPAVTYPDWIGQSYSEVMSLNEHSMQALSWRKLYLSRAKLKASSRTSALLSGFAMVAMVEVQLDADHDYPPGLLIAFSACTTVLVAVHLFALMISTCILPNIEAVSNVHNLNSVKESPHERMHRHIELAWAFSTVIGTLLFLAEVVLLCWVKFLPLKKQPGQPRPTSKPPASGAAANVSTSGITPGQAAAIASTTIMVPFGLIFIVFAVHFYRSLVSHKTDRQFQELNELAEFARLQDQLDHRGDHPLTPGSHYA

| Binder | IC50 IFN-γ, whole blood Donor A, recombinant mAb [1] [nM] | IC50 IFN-γ, whole blood Donor B, recombinant mAb [1] [nM] | IC50 IL-2, whole blood Donor A, recombinant mAb [1] [nM] | IC50 IL-2, whole blood Donor B, recombinant mAb [1] [nM] | IC50, NFAT-mediated luciferase assay (FIG. 6C) [2] [nM] | percent of control (POC) of FACS Geo Mean [6] [%] | percent of control (POC) of FACS Geo Mean [7] [%] | percent of control (POC) of FACS Geo Mean [8] [%] | percent of control (POC) of FACS Geo Mean [9] [%] | percent of control (POC) of FACS Geo Mean [10] [%] | percent of control (POC) of FACS Geo Mean [11] [%] | IC50, NFAT-mediated luciferase assay (FIG. 6B) [2] [nM] | other results |
| --- | --- | --- | --- | --- | --- | --- | --- | --- | --- | --- | --- | --- | --- |
| B1 | 0.59 | 3.59 | 1.42 | 0.87 | – | – | – | – | – | – | – | – | – |
| B2 | 11.1 | 9.84 | 2.42 | 2.43 | – | – | – | – | – | – | – | – | – |
| B3 | – | – | – | – | 1800 | < 1 | < 1 | < 1 | < 1 | < 1 | < 1 | – | binding result [3]: binds; binding result [4]: binds; binding result [5]: binds |
| B4 | – | – | – | – | 2.7 | < 1 | < 1 | < 1 | < 1 | < 1 | < 1 | 2.8 | – |
| B5 | – | – | – | – | 3.5 | < 1 | < 1 | < 1 | < 1 | < 1 | < 1 | 4.2 | binding result [12]: binds; binding result [13]: binds |
| B6 | – | – | – | – | 1.8 | < 1 | < 1 | < 1 | < 1 | < 1 | < 1 | 4.4 | IC50 of ICRAC current block, whole-cell patch clamp, HEK-293/hOrai1/hSTIM1 BB6.3 [2]: 55.9 nM; binding result [12]: binds; binding result [13]: binds; IC50 IL-4 release, cynomolgus whole blood, Cyno # 1 [14]: 0.921 nM; IC50 IL-4 release, cynomolgus whole blood, Cyno # 2 [14]: 6.34 nM; IC50 IL-4 release, cynomolgus whole blood, Cyno # 3 [14]: 0.429 nM; IC50 IL-5 release, cynomolgus whole blood, Cyno # 1 [14]: 1.56 nM; IC50 IL-5 release, cynomolgus whole blood, Cyno # 2 [14]: 15.2 nM; IC50 IL-5 release, cynomolgus whole blood, Cyno # 3 [14]: 0.815 nM; IC50 IL-17 release, cynomolgus whole blood, Cyno # 1 [14]: 0.939 nM; IC50 IL-17 release, cynomolgus whole blood, Cyno # 2 [14]: 0.95 nM; IC50 IL-17 release, cynomolgus whole blood, Cyno # 3 [14]: 0.32 nM |
| B7 | 0.28 | 10.7 | 1.32 | 2.52 | – | – | – | – | – | – | – | – | – |
